3 substances from article PMC5736782, “The Differential Absorption of a Series of P-Glycoprotein Substrates in Isolated Perfused Lungs from Mdr1a/1b Genetic Knockout Mice can be Attributed to Distinct Physico-Chemical Properties: an Insight into Predicting Transporter-Mediated, Pulmonary Specific Disposition” (Pharmaceutical Research, 2017) can be followed below.

The Km is the substrate concentration at which the rate is half of its maximum. What is called Vmax is the top rate of the reaction or transport when substrate is in excess.

The test system of data set [1] is CN1CCC[C@@H]1Cc1c[nH]c2ccc(CCS(=O)(=O)c3ccccc3)cc12. As to the kind of experiment: purified protein, by the assay type. As to conditions: other: ATPase, 0–300 μM, 30 min, 37°C.
Data set [2] relates to CC[C@@]1([C@@H]2O[C@@H]([C@H]3O[C@@](O)(CO)[C@H](C)C[C@@H]3C)C[C@@H]2C)CC[C@H]([C@]2(C)CC[C@]3(C[C@H](O)[C@@H](C)[C@@H]([C@@H](C)[C@@H](OC)[C@H](C)C(=O)O)O3)O2)O1. As to the kind of experiment: purified protein, by the assay type. Conditions: other: ATPase, 0–300 μM, 30 min, 37°C.
Source text: The Gentest ATPase assay (Corning, Germany) was used to investigate the binding kinetics of the panel of P-gp substrates against membranes constituted to display human MDR1, mouse Mdr1a, mouse Mdr1b and mouse Bcrp. The assays measure the accumulation of inorganic phosphate (absorbance at 800 nm) produced in the breakdown of ATP to ADP. […] The assays were used in accordance with the manufacturer’s protocol to calculate (GraphPad Prism) the Michaelis-Menten parameters Km and VMAX. For the assay test compounds were serially diluted to produce an assay concentration range of 0–300 μM with the kinetics of ATP turnover examined over 30 min at 37°C.

mouse Mdr1a (Mus musculus), sequence (chain, as listed by the source): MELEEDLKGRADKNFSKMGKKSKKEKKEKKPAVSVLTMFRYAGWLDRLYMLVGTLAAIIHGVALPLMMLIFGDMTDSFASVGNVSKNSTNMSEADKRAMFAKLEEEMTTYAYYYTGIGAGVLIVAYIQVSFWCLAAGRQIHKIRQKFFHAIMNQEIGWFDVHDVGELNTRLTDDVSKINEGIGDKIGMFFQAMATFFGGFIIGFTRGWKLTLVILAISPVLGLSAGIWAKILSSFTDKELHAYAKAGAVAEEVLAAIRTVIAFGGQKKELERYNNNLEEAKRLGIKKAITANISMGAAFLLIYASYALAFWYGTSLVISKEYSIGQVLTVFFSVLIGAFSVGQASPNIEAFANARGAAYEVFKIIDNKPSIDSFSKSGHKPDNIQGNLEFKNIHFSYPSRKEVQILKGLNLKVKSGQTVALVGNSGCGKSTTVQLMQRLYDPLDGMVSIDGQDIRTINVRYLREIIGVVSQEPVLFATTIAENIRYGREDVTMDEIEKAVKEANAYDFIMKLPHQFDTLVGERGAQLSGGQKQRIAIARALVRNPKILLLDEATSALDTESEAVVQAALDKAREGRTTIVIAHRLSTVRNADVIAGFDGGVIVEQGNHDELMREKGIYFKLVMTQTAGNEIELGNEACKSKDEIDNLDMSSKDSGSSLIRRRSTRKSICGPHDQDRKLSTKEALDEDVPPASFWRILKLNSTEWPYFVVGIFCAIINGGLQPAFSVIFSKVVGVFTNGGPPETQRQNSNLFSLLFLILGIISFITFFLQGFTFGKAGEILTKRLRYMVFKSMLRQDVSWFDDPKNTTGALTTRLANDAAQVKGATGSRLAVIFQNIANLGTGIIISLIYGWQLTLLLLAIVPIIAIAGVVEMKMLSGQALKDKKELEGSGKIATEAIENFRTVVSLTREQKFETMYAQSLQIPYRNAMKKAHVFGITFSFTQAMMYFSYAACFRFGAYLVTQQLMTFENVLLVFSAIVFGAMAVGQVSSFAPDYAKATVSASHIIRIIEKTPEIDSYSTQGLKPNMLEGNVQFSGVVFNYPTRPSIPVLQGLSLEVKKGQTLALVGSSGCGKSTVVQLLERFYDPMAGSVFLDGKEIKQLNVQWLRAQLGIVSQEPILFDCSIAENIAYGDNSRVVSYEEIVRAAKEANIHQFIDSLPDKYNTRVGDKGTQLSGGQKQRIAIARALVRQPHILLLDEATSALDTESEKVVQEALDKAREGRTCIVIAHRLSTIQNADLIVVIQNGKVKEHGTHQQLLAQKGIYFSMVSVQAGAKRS

For human MDR1 (Homo sapiens), in data set [1], the Km came to 91.5 µM and the Vmax was determined as 42.2 µM/min. Also, in data set [2], the Km is given as 14.8 µM and the Vmax turned out to be 15.6 µM/min.
Consider mouse Mdr1a (Mus musculus), for which, in data set [1], the Km stood at 45.6 µM and the Vmax was 32.6 µM/min. For the same substance, the Km in data set [2] was found to be 22.0 µM.
Take mouse Mdr1b (Mus musculus): the figures for the Km in data set [1] and in data set [2] were 58.1 µM and 30.6 µM, respectively. The Vmax in data set [1] was found to be 76.1 µM/min.
